Key:
GST-ORAI1^CT = target: T1, GST-ORAI1^CT (Homo sapiens, UniProt Q96D31); experiment: GST pull down assay with GST-ORAI1^CT (residues 259-301); assay type: binding; settings: SDS-PAGE, Coomassie staining
T1 construct: cDNA encoding ORAI1 residues 259-301 was amplified using PCR; made in house; host or cells: E. coli BL21 (DE3), pGEX-4T-1
From the text: Recruitment of ORAI1 to puncta by full-length STIM 1 depends on a direct or indirect interaction of STIM 1 with the C-terminal cytoplasmic tail of ORAI134,51. Therefore the direct interaction of recombinant STIM 1 proteins was next examined with a bacterially expressed fusion protein, GST-ORAI^CT, containing the cytoplasmic tail of ORAI1, residues 259-301. STIM 1^CT and the other STIM 1 fragments, except for STIM 1 (233-463), bound to GST-ORAI1^CT immobilized on resin (FIG. 2B). Binding was dependent on recognition of ORAI^CT, since there was no binding to GST alone. Because all input and bound proteins on the gel was visualized with Coomassie Brilliant Blue staining and detected no other proteins, the current experiment is unambiguous proof of a direct protein-protein interaction between STIM 1^CT and ORAI1^CT.
The cDNAs encoding mouse STIM 1^CT fragments (residues 233-685, 233-666, 233-600, 233-531, 233-498, or 233-463) were amplified via PCR and cloned into the pProEX HTb vector (Invitrogen) between the BamHI and XhoI sites for expression as His-tagged proteins. For production of the C-terminal cytoplasmic tail of ORAI 1 as a GST fusion protein, coupled to GST through the flexible linker—GSGSRGSPEF—(SEQ ID NO: 1), cDNA encoding ORAI1 residues 259-301 was amplified using PCR and cloned into the pGEX-4T-1 vector (GE Healthcare) between the BamHI and NotI sites. […]

[1] = Pichia membrane flotation assay, control membranes; assay type: binding, Pichia pastoris; settings: membranes from yeast not expressing ORAI1
Protocol: A membrane flotation assay was used to evaluate binding of these recombinant STIM 1 proteins to ORAI1. For these experiments ORAI1 (65-301) was expressed, an N-terminally truncated ORAI1 protein that forms functional Ca^2+ channels in mammalian cells (Li, Z., et al., J Biol Chem 282, 29448-29456 (2007)), in the yeast Pichia pastoris. Microsomal membranes were prepared from P pastoris expressing ORAI1 (65-301), layered at the bottom of a discontinuous sucrose gradient, and centrifuged. After centrifugation, the recombinant ORAI 1 was recovered near the top of the gradient in the fraction visually identified as containing membranes (FIG. 2A), as expected for an integral membrane protein.
Microsomal membranes, prepared from yeast Pichia pastoris expressing human ORAI1 (65-301) with an N-terminal FLAG tag and the substitutions E106Q and N223A, were resuspended in 10 mM HEPES pH 7.4, 150 mM NaCl, 1 mM DTT, 10% glycerol, briefly sonicated, brought to 25 mM EDTA by addition of EDTA from a concentrated stock, layered over a 0.5 M sucrose cushion, and centrifuged at 149,000×g for 1 h at 4° C. in a Beckman airfuge. […] FLAG-tagged ORAI1 was detected using anti-FLAG M2 monoclonal antibody (Sigma) and His-tagged STIM1^CT fragments were detected using anti-His-Tag monoclonal antibody (27E8 clone, Cell Signaling Technology).

T1 sequence (Q96D31 259-301): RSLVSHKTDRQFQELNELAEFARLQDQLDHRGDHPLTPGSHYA

## STIM1^CT: cytoplasmic region of STIM1, mouse residues 233-685, His-tagged recombinant protein expressed in E coli
GST-ORAI1^CT
  binding to GST-ORAI1^CT immobilized on resin: bound
[1]
  position in gradient with control membranes: remained at the bottom of the gradient
